This note sets out measurements from US20150299281A1 (ZEALAND PHARMA A S, published 2015).

Numbered stars: 1 amine (or outer) side, 2 acyl side, 3 side chain; on linkers, the order of the positions; unused ones are H or OH. Square brackets hold non-standard residues; d marks the D form. Side chains are listed from the residue outwards. * marks the point of attachment. γGlu = O=C(O)[C@H](CCC(=O)[*:2])N[*:1]; Palmitoyl = CCCCCCCCCCCCCCCC(=O)*; pGlu = O=C1CC[C@@H](C(=O)O)N1; Aib = CC(C)(N)C(=O)O

One experiment concerns the target human GLP-1 receptor (human, UniProt P43220 24-463). Kind of experiment: cell-based or functional assay.
A further experiment addresses T1, human GIP receptor (human, UniProt P48546 22-466).
T1 sequence (looked up): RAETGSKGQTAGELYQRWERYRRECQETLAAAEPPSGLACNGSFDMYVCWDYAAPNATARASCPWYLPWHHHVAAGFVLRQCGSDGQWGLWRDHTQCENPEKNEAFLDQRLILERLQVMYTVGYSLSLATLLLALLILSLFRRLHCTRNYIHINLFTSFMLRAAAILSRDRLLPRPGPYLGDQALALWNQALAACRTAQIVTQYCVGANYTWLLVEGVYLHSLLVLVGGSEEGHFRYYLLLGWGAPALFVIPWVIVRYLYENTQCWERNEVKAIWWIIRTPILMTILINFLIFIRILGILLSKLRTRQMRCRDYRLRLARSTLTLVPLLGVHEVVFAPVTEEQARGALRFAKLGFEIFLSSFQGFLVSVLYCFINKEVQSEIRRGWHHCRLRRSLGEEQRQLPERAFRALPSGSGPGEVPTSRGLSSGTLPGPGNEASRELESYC
Nature of the experiment: cell-based or functional assay.

B1: Compound 36 (peptide)
peptide: YAEGTFTSDYSIALDKKAQRAFVNWLVAAKPSSGAPPPS
modifications: Aib at 2 and 29; K(hexadecanoyl-isoGlu) at 17; C-terminal amide
As for B1, the “EC50, cAMP induction in HEK293 cells expressing human GLP-1 R” value in the experiment with human GLP-1 receptor came out at 15 pM.

B2: Compound 53 (peptide)
peptide: H-Y[Aib]EGTFTSDYSIYLDSK([γGlu-Palmitoyl])AAHDFVEWLLSAGPSSGAPPPS-NH2
SMILES: CCCCCCCCCCCCCCCC(=O)N[C@@H](CCC(=O)NCCCC[C@H](NC(=O)[C@H](CO)NC(=O)[C@H](CC(=O)O)NC(=O)[C@H](CC(C)C)NC(=O)[C@H](Cc1ccc(O)cc1)NC(=O)[C@@H](NC(=O)[C@H](CO)NC(=O)[C@H](Cc1ccc(O)cc1)NC(=O)[C@H](CC(=O)O)NC(=O)[C@H](CO)NC(=O)[C@@H](NC(=O)[C@H](Cc1ccccc1)NC(=O)[C@@H](NC(=O)CNC(=O)[C@H](CCC(=O)O)NC(=O)C(C)(C)NC(=O)[C@@H](N)Cc1ccc(O)cc1)[C@@H](C)O)[C@@H](C)O)[C@@H](C)CC)C(=O)N[C@@H](C)C(=O)N[C@@H](C)C(=O)N[C@@H](Cc1c[nH]cn1)C(=O)N[C@@H](CC(=O)O)C(=O)N[C@@H](Cc1ccccc1)C(=O)N[C@H](C(=O)N[C@@H](CCC(=O)O)C(=O)N[C@@H](Cc1c[nH]c2ccccc12)C(=O)N[C@@H](CC(C)C)C(=O)N[C@@H](CC(C)C)C(=O)N[C@@H](CO)C(=O)N[C@@H](C)C(=O)NCC(=O)N1CCC[C@H]1C(=O)N[C@@H](CO)C(=O)N[C@@H](CO)C(=O)NCC(=O)N[C@@H](C)C(=O)N1CCC[C@H]1C(=O)N1CCC[C@H]1C(=O)N1CCC[C@H]1C(=O)N[C@@H](CO)C(N)=O)C(C)C)C(=O)O
With B2, the “EC50, cAMP induction in HEK293 cells expressing human GIP R” value with human GIP receptor worked out at 62 pM. The “EC50, cAMP induction in HEK293 cells expressing human GLP-1 R” value in the experiment with human GLP-1 receptor is 92 pM.

B3: Compound 55 (peptide)
peptide: H-Y[Aib]EGTFTSDYSIYLDSKAAHDFVEWLLSAGPSSGAPPPS-NH2
SMILES: CC[C@H](C)[C@H](NC(=O)[C@H](CO)NC(=O)[C@H](Cc1ccc(O)cc1)NC(=O)[C@H](CC(=O)O)NC(=O)[C@H](CO)NC(=O)[C@@H](NC(=O)[C@H](Cc1ccccc1)NC(=O)[C@@H](NC(=O)CNC(=O)[C@H](CCC(=O)O)NC(=O)C(C)(C)NC(=O)[C@@H](N)Cc1ccc(O)cc1)[C@@H](C)O)[C@@H](C)O)C(=O)N[C@@H](Cc1ccc(O)cc1)C(=O)N[C@@H](CC(C)C)C(=O)N[C@@H](CC(=O)O)C(=O)N[C@@H](CO)C(=O)N[C@@H](CCCCN)C(=O)N[C@@H](C)C(=O)N[C@@H](C)C(=O)N[C@@H](Cc1c[nH]cn1)C(=O)N[C@@H](CC(=O)O)C(=O)N[C@@H](Cc1ccccc1)C(=O)N[C@H](C(=O)N[C@@H](CCC(=O)O)C(=O)N[C@@H](Cc1c[nH]c2ccccc12)C(=O)N[C@@H](CC(C)C)C(=O)N[C@@H](CC(C)C)C(=O)N[C@@H](CO)C(=O)N[C@@H](C)C(=O)NCC(=O)N1CCC[C@H]1C(=O)N[C@@H](CO)C(=O)N[C@@H](CO)C(=O)NCC(=O)N[C@@H](C)C(=O)N1CCC[C@H]1C(=O)N1CCC[C@H]1C(=O)N1CCC[C@H]1C(=O)N[C@@H](CO)C(N)=O)C(C)C
Take B3: the “EC50, cAMP induction in HEK293 cells expressing human GIP R” value with human GIP receptor is 7.1 pM. Moreover, the “EC50, cAMP induction in HEK293 cells expressing human GLP-1 R” value in the experiment with human GLP-1 receptor amounted to 8.7 pM.

B4: Compound 52 (peptide)
peptide: H-Y[Aib]EGTFTSDYSIYLDEK([γGlu-Palmitoyl])AAKDFVEWLLSA-NH2
SMILES: CCCCCCCCCCCCCCCC(=O)N[C@@H](CCC(=O)NCCCC[C@H](NC(=O)[C@H](CCC(=O)O)NC(=O)[C@H](CC(=O)O)NC(=O)[C@H](CC(C)C)NC(=O)[C@H](Cc1ccc(O)cc1)NC(=O)[C@@H](NC(=O)[C@H](CO)NC(=O)[C@H](Cc1ccc(O)cc1)NC(=O)[C@H](CC(=O)O)NC(=O)[C@H](CO)NC(=O)[C@@H](NC(=O)[C@H](Cc1ccccc1)NC(=O)[C@@H](NC(=O)CNC(=O)[C@H](CCC(=O)O)NC(=O)C(C)(C)NC(=O)[C@@H](N)Cc1ccc(O)cc1)[C@@H](C)O)[C@@H](C)O)[C@@H](C)CC)C(=O)N[C@@H](C)C(=O)N[C@@H](C)C(=O)N[C@@H](CCCCN)C(=O)N[C@@H](CC(=O)O)C(=O)N[C@@H](Cc1ccccc1)C(=O)N[C@H](C(=O)N[C@@H](CCC(=O)O)C(=O)N[C@@H](Cc1c[nH]c2ccccc12)C(=O)N[C@@H](CC(C)C)C(=O)N[C@@H](CC(C)C)C(=O)N[C@@H](CO)C(=O)N[C@@H](C)C(N)=O)C(C)C)C(=O)O
With B4, in the experiment with human GIP receptor, the “EC50, cAMP induction in HEK293 cells expressing human GIP R” value worked out at 87 pM. The “EC50, cAMP induction in HEK293 cells expressing human GLP-1 R” value in the experiment with human GLP-1 receptor is 180 pM.

B5: Compound 5 (peptide)
peptide: H-Y[Aib]EGTFTSDYSIYLDKKAQRAFVNWLLA[Aib]K-NH2
SMILES: CC[C@H](C)[C@H](NC(=O)[C@H](CO)NC(=O)[C@H](Cc1ccc(O)cc1)NC(=O)[C@H](CC(=O)O)NC(=O)[C@H](CO)NC(=O)[C@@H](NC(=O)[C@H](Cc1ccccc1)NC(=O)[C@@H](NC(=O)CNC(=O)[C@H](CCC(=O)O)NC(=O)C(C)(C)NC(=O)[C@@H](N)Cc1ccc(O)cc1)[C@@H](C)O)[C@@H](C)O)C(=O)N[C@@H](Cc1ccc(O)cc1)C(=O)N[C@@H](CC(C)C)C(=O)N[C@@H](CC(=O)O)C(=O)N[C@@H](CCCCN)C(=O)N[C@@H](CCCCN)C(=O)N[C@@H](C)C(=O)N[C@@H](CCC(N)=O)C(=O)N[C@@H](CCCNC(=N)N)C(=O)N[C@@H](C)C(=O)N[C@@H](Cc1ccccc1)C(=O)N[C@H](C(=O)N[C@@H](CC(N)=O)C(=O)N[C@@H](Cc1c[nH]c2ccccc12)C(=O)N[C@@H](CC(C)C)C(=O)N[C@@H](CC(C)C)C(=O)N[C@@H](C)C(=O)NC(C)(C)C(=O)N[C@@H](CCCCN)C(N)=O)C(C)C
Turning to B5, the “EC50, cAMP induction in HEK293 cells expressing human GIP R” value in the experiment with human GIP receptor was found to be 31 pM. Further, in the experiment with human GLP-1 receptor, the “EC50, cAMP induction in HEK293 cells expressing human GLP-1 R” value amounted to 23 pM.

B6: Compound 6 (peptide)
peptide: [pGlu]YAEGTFTSDYSIYLDKKAQRAFVNWLLA[Aib]K-NH2
SMILES: CC[C@H](C)[C@H](NC(=O)[C@H](CO)NC(=O)[C@H](Cc1ccc(O)cc1)NC(=O)[C@H](CC(=O)O)NC(=O)[C@H](CO)NC(=O)[C@@H](NC(=O)[C@H](Cc1ccccc1)NC(=O)[C@@H](NC(=O)CNC(=O)[C@H](CCC(=O)O)NC(=O)[C@H](C)NC(=O)[C@H](Cc1ccc(O)cc1)NC(=O)[C@@H]1CCC(=O)N1)[C@@H](C)O)[C@@H](C)O)C(=O)N[C@@H](Cc1ccc(O)cc1)C(=O)N[C@@H](CC(C)C)C(=O)N[C@@H](CC(=O)O)C(=O)N[C@@H](CCCCN)C(=O)N[C@@H](CCCCN)C(=O)N[C@@H](C)C(=O)N[C@@H](CCC(N)=O)C(=O)N[C@@H](CCCNC(=N)N)C(=O)N[C@@H](C)C(=O)N[C@@H](Cc1ccccc1)C(=O)N[C@H](C(=O)N[C@@H](CC(N)=O)C(=O)N[C@@H](Cc1c[nH]c2ccccc12)C(=O)N[C@@H](CC(C)C)C(=O)N[C@@H](CC(C)C)C(=O)N[C@@H](C)C(=O)NC(C)(C)C(=O)N[C@@H](CCCCN)C(N)=O)C(C)C
Regarding B6, the “EC50, cAMP induction in HEK293 cells expressing human GIP R” value in the experiment with human GIP receptor is 270 pM. Moreover, the “EC50, cAMP induction in HEK293 cells expressing human GLP-1 R” value with human GLP-1 receptor was 970 pM.

B7: Compound 7 (peptide)
peptide: H-YGEGTFTSDYSIYLDKKAQRAFVNWLLA[Aib]K-NH2
SMILES: CC[C@H](C)[C@H](NC(=O)[C@H](CO)NC(=O)[C@H](Cc1ccc(O)cc1)NC(=O)[C@H](CC(=O)O)NC(=O)[C@H](CO)NC(=O)[C@@H](NC(=O)[C@H](Cc1ccccc1)NC(=O)[C@@H](NC(=O)CNC(=O)[C@H](CCC(=O)O)NC(=O)CNC(=O)[C@@H](N)Cc1ccc(O)cc1)[C@@H](C)O)[C@@H](C)O)C(=O)N[C@@H](Cc1ccc(O)cc1)C(=O)N[C@@H](CC(C)C)C(=O)N[C@@H](CC(=O)O)C(=O)N[C@@H](CCCCN)C(=O)N[C@@H](CCCCN)C(=O)N[C@@H](C)C(=O)N[C@@H](CCC(N)=O)C(=O)N[C@@H](CCCNC(=N)N)C(=O)N[C@@H](C)C(=O)N[C@@H](Cc1ccccc1)C(=O)N[C@H](C(=O)N[C@@H](CC(N)=O)C(=O)N[C@@H](Cc1c[nH]c2ccccc12)C(=O)N[C@@H](CC(C)C)C(=O)N[C@@H](CC(C)C)C(=O)N[C@@H](C)C(=O)NC(C)(C)C(=O)N[C@@H](CCCCN)C(N)=O)C(C)C
Regarding B7, the “EC50, cAMP induction in HEK293 cells expressing human GIP R” value with human GIP receptor amounted to 210 pM. In the experiment with human GLP-1 receptor, the “EC50, cAMP induction in HEK293 cells expressing human GLP-1 R” value is 24 pM.

B8: Compound 54 (peptide)
peptide: H-Y[Aib]EGTFTSDYSIYLEKK([γGlu-Palmitoyl])AAKEFVEWLLSAGPSSGAPPPS-NH2
SMILES: CCCCCCCCCCCCCCCC(=O)N[C@@H](CCC(=O)NCCCC[C@H](NC(=O)[C@H](CCCCN)NC(=O)[C@H](CCC(=O)O)NC(=O)[C@H](CC(C)C)NC(=O)[C@H](Cc1ccc(O)cc1)NC(=O)[C@@H](NC(=O)[C@H](CO)NC(=O)[C@H](Cc1ccc(O)cc1)NC(=O)[C@H](CC(=O)O)NC(=O)[C@H](CO)NC(=O)[C@@H](NC(=O)[C@H](Cc1ccccc1)NC(=O)[C@@H](NC(=O)CNC(=O)[C@H](CCC(=O)O)NC(=O)C(C)(C)NC(=O)[C@@H](N)Cc1ccc(O)cc1)[C@@H](C)O)[C@@H](C)O)[C@@H](C)CC)C(=O)N[C@@H](C)C(=O)N[C@@H](C)C(=O)N[C@@H](CCCCN)C(=O)N[C@@H](CCC(=O)O)C(=O)N[C@@H](Cc1ccccc1)C(=O)N[C@H](C(=O)N[C@@H](CCC(=O)O)C(=O)N[C@@H](Cc1c[nH]c2ccccc12)C(=O)N[C@@H](CC(C)C)C(=O)N[C@@H](CC(C)C)C(=O)N[C@@H](CO)C(=O)N[C@@H](C)C(=O)NCC(=O)N1CCC[C@H]1C(=O)N[C@@H](CO)C(=O)N[C@@H](CO)C(=O)NCC(=O)N[C@@H](C)C(=O)N1CCC[C@H]1C(=O)N1CCC[C@H]1C(=O)N1CCC[C@H]1C(=O)N[C@@H](CO)C(N)=O)C(C)C)C(=O)O
For B8, the “EC50, cAMP induction in HEK293 cells expressing human GIP R” value in the experiment with human GIP receptor amounted to 37 pM. Further, in the experiment with human GLP-1 receptor, the “EC50, cAMP induction in HEK293 cells expressing human GLP-1 R” value was 33 pM.
